In PMC7980507 (Protein Science : A Publication of the Protein Society, 2021):

Target: His‐tagged SARS‐CoV‐2 spike receptor binding domain (RBD) (SARS-CoV-2, UniProt P0DTC2)
Assay: BLI

B1: CB6 (antibody, V domains shown)
VH: EVQLVESGGGLVQPGGSLRLSCAASGFTVSSNYMSWVRQAPGKGLEWVSVIYSGGSTFYADSVKGRFTISRDNSMNTLFLQMNSLRAEDTAVYYCARVLPMYGDYLDYWGQGTLVTVSS
VL: not shown
Question: Does B1 bind?
Answer: Result: binds

B2: EY6A (antibody, V domains shown)
VH: EVQLVESGGGVVQPGRSLRLSCAASAFTFSSYDMHWVRQAPGKGLEWVAVISYDGSNKYYADSVKGRFTISRDNSKNTLYLQMNSLRAEDTAVYYCAKDGGKLWVYYFDYWGQGTLVTVSS
VL: not shown
Question: Does B2 bind?
Answer: Result: binds
